The values that follow come from patent publication US20060024723A1.

For the assay, the target named is oncofetal fibronectin (human) (UniProt P02751). Kind of assay: lateral flow sandwich; FDC-6 blue latex conjugate and immobilised goat anti-fibronectin; TLiIQ reflectance reader. To be noted: scale: reflectance signal.
Sequence of UniProt P02751 (P02751 32-2477): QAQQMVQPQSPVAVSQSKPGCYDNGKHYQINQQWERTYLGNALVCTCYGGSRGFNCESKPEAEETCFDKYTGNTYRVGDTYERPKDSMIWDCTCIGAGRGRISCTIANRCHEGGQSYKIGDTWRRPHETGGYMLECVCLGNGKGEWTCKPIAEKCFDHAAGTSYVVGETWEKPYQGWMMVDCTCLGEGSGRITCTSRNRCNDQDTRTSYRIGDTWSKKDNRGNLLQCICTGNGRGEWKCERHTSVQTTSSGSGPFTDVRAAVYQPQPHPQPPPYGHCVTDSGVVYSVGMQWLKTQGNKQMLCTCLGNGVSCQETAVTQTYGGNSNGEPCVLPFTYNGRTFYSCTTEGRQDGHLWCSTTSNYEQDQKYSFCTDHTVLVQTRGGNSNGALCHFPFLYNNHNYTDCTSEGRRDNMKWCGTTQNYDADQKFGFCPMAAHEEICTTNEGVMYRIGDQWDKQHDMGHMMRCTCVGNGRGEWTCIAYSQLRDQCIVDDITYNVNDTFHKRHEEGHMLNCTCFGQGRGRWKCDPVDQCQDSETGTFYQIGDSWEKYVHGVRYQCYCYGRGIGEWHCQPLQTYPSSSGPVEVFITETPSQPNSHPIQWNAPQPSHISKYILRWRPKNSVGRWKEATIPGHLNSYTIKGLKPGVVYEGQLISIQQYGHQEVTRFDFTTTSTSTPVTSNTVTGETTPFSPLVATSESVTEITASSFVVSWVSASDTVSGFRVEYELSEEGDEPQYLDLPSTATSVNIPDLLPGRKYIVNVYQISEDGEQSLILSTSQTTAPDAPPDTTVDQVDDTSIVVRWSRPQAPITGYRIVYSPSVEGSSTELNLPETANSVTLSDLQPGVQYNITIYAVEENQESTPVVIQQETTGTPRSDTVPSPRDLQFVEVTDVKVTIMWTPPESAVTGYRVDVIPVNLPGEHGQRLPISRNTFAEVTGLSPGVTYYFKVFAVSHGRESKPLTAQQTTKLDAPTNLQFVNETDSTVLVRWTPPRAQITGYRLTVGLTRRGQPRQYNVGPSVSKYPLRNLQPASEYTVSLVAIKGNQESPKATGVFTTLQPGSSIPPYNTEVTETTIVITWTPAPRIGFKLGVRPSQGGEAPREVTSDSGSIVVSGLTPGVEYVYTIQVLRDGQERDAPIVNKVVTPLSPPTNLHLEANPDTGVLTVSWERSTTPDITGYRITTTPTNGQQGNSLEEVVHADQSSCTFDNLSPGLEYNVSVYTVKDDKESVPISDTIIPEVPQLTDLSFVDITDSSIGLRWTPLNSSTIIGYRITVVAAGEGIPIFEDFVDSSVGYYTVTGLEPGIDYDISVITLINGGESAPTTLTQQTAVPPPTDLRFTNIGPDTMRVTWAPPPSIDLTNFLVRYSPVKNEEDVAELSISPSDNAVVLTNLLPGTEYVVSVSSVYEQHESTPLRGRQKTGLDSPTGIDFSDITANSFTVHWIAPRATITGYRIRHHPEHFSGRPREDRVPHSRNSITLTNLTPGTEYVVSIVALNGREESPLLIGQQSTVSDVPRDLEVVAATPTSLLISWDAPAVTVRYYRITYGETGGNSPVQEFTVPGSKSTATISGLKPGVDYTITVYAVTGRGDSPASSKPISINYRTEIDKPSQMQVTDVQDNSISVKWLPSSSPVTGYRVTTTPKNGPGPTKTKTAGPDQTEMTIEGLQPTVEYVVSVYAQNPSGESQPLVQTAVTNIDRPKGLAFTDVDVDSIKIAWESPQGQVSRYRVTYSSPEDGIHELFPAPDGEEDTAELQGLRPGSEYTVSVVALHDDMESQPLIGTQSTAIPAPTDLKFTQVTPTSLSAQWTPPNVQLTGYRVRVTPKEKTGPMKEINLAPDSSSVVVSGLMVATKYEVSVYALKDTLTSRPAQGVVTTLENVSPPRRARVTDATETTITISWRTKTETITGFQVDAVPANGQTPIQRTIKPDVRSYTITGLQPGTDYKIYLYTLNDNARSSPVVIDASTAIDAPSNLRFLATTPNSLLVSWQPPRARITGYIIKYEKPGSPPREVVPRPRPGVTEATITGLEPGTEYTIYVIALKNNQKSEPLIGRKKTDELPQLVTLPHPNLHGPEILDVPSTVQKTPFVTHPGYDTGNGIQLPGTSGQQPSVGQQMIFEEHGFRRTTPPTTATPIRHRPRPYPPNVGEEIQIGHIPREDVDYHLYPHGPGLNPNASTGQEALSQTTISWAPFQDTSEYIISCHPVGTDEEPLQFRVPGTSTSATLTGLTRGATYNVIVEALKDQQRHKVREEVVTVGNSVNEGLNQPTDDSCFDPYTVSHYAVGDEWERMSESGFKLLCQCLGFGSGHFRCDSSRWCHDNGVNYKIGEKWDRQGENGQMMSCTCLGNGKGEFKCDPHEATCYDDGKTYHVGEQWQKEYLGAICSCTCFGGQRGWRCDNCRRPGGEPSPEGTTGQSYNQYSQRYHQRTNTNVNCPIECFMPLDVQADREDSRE

The substance “monoclonal antibody FDC-6, produced by the hybridoma ATCC HB 9018” displayed a reflectance signal of 0.315.
